Source: the RNAGym collection of RNA variant scans (doi:10.1073/pnas.2313332121)

B1: TPR t1 (parent)
chain: GACCAAUCUGCCCUCAGAGCUCGAGAACAUCUUCGGAUGCAGAGGAGGCAGGCUUCGGUGGCGCGAUAGCGCCAACGUCCUCAACCUCCAAUGCAUCCCACCACAUGAUGAUGCCUGAAGAGCCUUGGUUUUUUG

Variants of: B1
Experiment: polymerase ribozyme fitness, log enrichment relative to wild type (log ratio); higher = more active; in vitro selection for triplet polymerase activity
Summary of the method: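 Streptavidin-bead capture of gel-excised extended constructs, followed by RT-PCR, closed a single triplicate in vitro selection round. That round began by annealing PCR-built, transcribed mutant libraries of each subunit of a heterodimeric triplet polymerase ribozyme with a biotinylated primer, the partner subunit and triplets, then incubating them frozen at −7 °C. After Illumina sequencing of inputs and outputs, genotypes needed ≥10 input reads and ≥1 read per output. Fitness is the base-2 logarithm of genotype enrichment over wild-type enrichment, using inverse-variance-weighted replicate averages.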

| Variant | polymerase ribozyme fitness (log ratio) |
| --- | --- |
| GACCAAUCUGGCCUCAGAGCUCGAGAACAUCUUCGGAUGCAGAGGAGGCAGGCUUCGGUGGCUCGAUAGCGCCAACGUCCUCAACCUACAAUGCAUCCCACCACAUGAUGAUGCCUGAAGAGCCUUGGUUUUUUG | -1.57 |
| GACCAAUCUGGCCUCAGAGCUCGAGAACAUCUUCGGAUGCAUAGUAGGCACGCUUCGGUGGCGCGAUAGCGCCAACGUCCUCAACCUCCAAUGCAUCCCACCACAUGAUGAUGCCUGAAAAGCCUUGGUUUUUGG | -4.64 |
| GACCAAUCUGGCCUCAGAGCUCGAGAACAUCUUCGGAUGCAGAGGAGGCAGGCUUCGGUGGCACGAUAGCGCCAACGUCCUCAACCUCCAAUGCAUCCCACCACAUGAUGAUGCCUGAAGAGCCUUGGUUUUUUG | -0.354 |
| GACCAAUCUGGCCUCAGAGCUCGAGAACAUCUUCGGAUGCAGAGGAGGCAGGCUUCGGUGGCCCGAUAGCGCCAACGUCCUCAACCUCCAAUGCAUCCCACCACAUGAUGAUGCCUGAAGAGCCUUGGUUUUUUG | -0.406 |
| GACCAAUCUGGCCUCAGAGCUCGAGAACAUCUUCGGAUGCAGAAGAGGCAGGCUUCGGUGGCGCGAUAGCGCCAACGUCCUCAACCUCCAAUGCAUCCCACCACAUGAUGAUGCCUGAAGUGCCUUGGUUUUUUG | 1.52 |
| GACCAAUCUGGCCUCAGAGCUCGAGAACAUCUUCGGAUGCAGAGGAGGCAGGCCUCGGUUGCGCGAUAGCGCCAACGUCCUCAACUUCCAAUGCAUCCCACCACAUGAUGAUGCCUGAAGAGCCUUGGUUUUUUG | -0.56 |
| GACCAAUCUGGCCUCAGAGCACGAGAACAUCUUCGGAUGCAGAGGAGGCAGGAUUCGGUGGCGCGAUAGCGCCAACGUCCUCAACCUCCAAUGCAUGCCACCACAUGAUGAUGCCUGAAGAGCCUUGGUUUUUUG | -3.53 |
| GACCAAUCUGGCCUCAGAGCUCGAGAACAUCUUCGGAUGCACAGGAGGCAGGAUUCGGUGGCGCGAUAGCGCCAACGUCCUCAACCUCCAAUGCAUCCCACCACAUGAUGAUGCCUGAAGAGCCUUGGUUUUUUG | -1.03 |
| GACCAAUCUGGCCUCAGAGCUCGAGAACAUCUUCGGAUGCAGAGGAGGCAGUCUUGGGUGGCGCGAUAGCGCCAACGUCCUCAACCUCCAAUGCAUCCCACUCCAUGAUGAUGCCUGAAGAGCCUUGGUUUUUUG | -6.01 |
| GACCAAUCUGGCCUCAGAGCUCGAGAACAUCUUCGGAUGCAGAGGAGGCAGGCUUCGGGGGCGCGAUAGCGCCAACGUCCUCAACCUCCAAAGCAUCCCACCACAUGAUGAUGUCUGAAGCGCCUUGUUUUUUUG | -3.21 |
| GACCAAUCUGGCCUCAGAGCUCGAGAACAUCUUCGGAUGCAGAGUAGGCACGCUUCGGUGACGCGAUAGCGCCAACGUCCUCAACCUCCAAUGCAUCCCACCACAUGAUGAUGCCUGAAGAGCCUUGGUUUUUUG | -3.84 |
| GACCAAUCUGGCCUCAGAGCUCGAGAACAUCUUCGGAUGCAGAGGAGGCAGGCUUCGGUGGCGCGAUAGCGCCAACGUCCUCAACCUCCAAUGCAUCCCACCACAUUAUGAUGCCUGAAGAGCCUUGGUUUUUUG | -3.64 |
| GACCAAUCUGGCCUCAGAGCUCGACAACAUCUUCGGAUACAGAGGAGGCAGGCUUAGGUGGCGCGAUAGCGGCAACGUCCUAAACCUCCAAUGCAUCCCACCACAUGAUGCUGCCUGAAGAGCCUUGGUUUUUUG | -7.55 |
| GACCAAUCUGGCCUCAGAGCUCGAGAACAUCUUCGGAUGCAUAGGAGGCAGGCUUCGGUGGCGCGAUAGCGCCAACGUCCUCAUCCUCCAAUGCAUCCCACCACAUGAUGAUGCCUGAAGAGCCUUGGUUUUUUG | -1.53 |
| GACCAAUCUGGCCUCAGAGCUCGAGAACAUCUUCGGAUGCACAGGAGGCAGGCUUCGGUGGCGCGAUAUCGCCAACGUCCUCAACCUCCAAUGCAUCCCACCACAUGAUGCUGCCUGAAGAGCCUUGGUUUUUUG | -0.0543 |
| GACCAAUCUGGCCUCAGAGCUCGAGAACAUCUUCGGAUGCAGAGGAGGCAGGCUUCGGUGGCGCGAUAGCGCCAACAUCCUCAACCUCCAAUGCAUCCCACCACAUGAUGAUGCCUGAAGAGCCUUGGUUUUUUG | -0.375 |
| GACCAAUCUGGCCUCAGAGCUCGAGAACAUCUUCGGAUGCAGAAGAGGCAGGCUUCGGUAGCGCGAUAGCGCCAACGUCCUCAACCUCCAAUGCAUCCCACCACAUGAUGAUGCCUGAAGUGCCUUGGUUUUUUG | 1.14 |
| GACCAAUCUGGCCUCAGAGCUCCAGAACAUCCUCGGAUGCAGAGGAGGCAGGCUUCGGUGACGCGAUAGCGCCAACGUCCUCAACUUCCAAUGCAUCCCACCACAUGAUGAUGCCUGAAGAGCCUUGGUUUUAUG | -5.64 |
| GACCAAUCUGGCCUCAGAGCUCGAGAACAUCUUCGAAUGCAGAGGACGCAGGCUUCGGUGGCGCGAUAGCGCCAACGUCCUCAACCUCCAAUGCAUCCCACCACAUGAUGAUGCCUAAAGAGCCUUGGAUUUUUG | -4.45 |
| GACCAAUCUGGCCUCAGAGCUCGAGAACAUCUUCGUAUGCAGUGGAGGCAGGCUUCGGUGACACGAUAGCGCCAACGUCCUCAACCUCCAAUGCAUCCCACCACAUGAUGAUGCUUGAAGAGCCAUGGUUUAUUG | -6.45 |
| GACCAAUCUGGCCUCAGAGCUCGAGAACAUCUUCGGAUGCAGAGGAGGCAGACUUCGGUGGCGCGAUAGCGCCAACGUCCUCAACCUCCAAUGAAUCCCACCACAUGAUGAUGCCUGAAGAGCCUUGGUUUUUUG | 0.0249 |
